Here are results for 6 molecules from article PMC7089611 (Febs Letters, 2012).

Data set [1] deals with the molecule itself. In words: AUC.
Data set [2] deals with the molecule itself. Nature of the data set: AUC. This is another data set of the same source.
Data set [3] deals with the molecule itself. Nature of the data set: AUC. The source holds these as a separate data set.
The nature of data set [4]: Secondary structural content by CD spectroscopy. The class given is physicochemical. To be noted: 25 °C, protein 5 μM, 50 mM Tris–HCl pH 7.5, 150 mM NaCl, 0.1% β‐mercaptoethanol, CDSSTR.
The format of data set [5] is physicochemical. To be noted: CD at 220 nm, protein 7 μM, 50 mM Tris–HCl pH 7.5, 150 mM NaCl, 0.1% β‐mercaptoethanol.

“And” between values parts separate entries of the source, which are not always exact repeats. Identical values can stand only once. Like-named read-outs stand apart in the source and are kept apart here.

B1: HCoV‐229E nucleocapsid (N) protein C‐terminal domain truncation N245–370 (domain or fragment)
chain: QKPRWKRQPNDDVTSNVTQCFGPRDLDHNFGSAGVVANGVKAKGYPQFAELVPSTAAMLFDSHIVSKESGNTVVLTFTTRVTVPKDHPHLGKFLEELNAFTREMQQHPLLNPSALEFNPSQTSPAT
What is called Kd is the concentration at which binding is half-saturated. Lower therefore signals tighter binding. The stoichiometry N is the number of molecules, sites or subunits per partner or assembly. As for B1, in the data set “AUC [1]”, binding was characterised by a dissociation constant (Kd) of 177 µM; the “stoichiometry N” value is 2 and 4.

B2: HCoV‐229E nucleocapsid (N) protein C‐terminal domain N245–389 (domain or fragment)
chain: QKPRWKRQPNDDVTSNVTQCFGPRDLDHNFGSAGVVANGVKAKGYPQFAELVPSTAAMLFDSHIVSKESGNTVVLTFTTRVTVPKDHPHLGKFLEELNAFTREMQQHPLLNPSALEFNPSQTSPATAEPVRDEVSIETDIIDEVN
B2: the Kd in the data set “AUC [2]” was roughly 9.7 µM; in “AUC [3]” it was roughly 6.1 µM; in the data set “AUC [1]”, 3.5 µM.

B3: HCoV‐229E nucleocapsid (N) protein C‐terminal domain truncation N245–376 (domain or fragment)
chain: QKPRWKRQPNDDVTSNVTQCFGPRDLDHNFGSAGVVANGVKAKGYPQFAELVPSTAAMLFDSHIVSKESGNTVVLTFTTRVTVPKDHPHLGKFLEELNAFTREMQQHPLLNPSALEFNPSQTSPATAEPVRD
As for B3, in the data set “AUC [1]”, binding was put at a Kd of 159 µM; the “stoichiometry N” value was 4 and 2.

B4: HCoV‐229E nucleocapsid (N) protein C‐terminal domain truncation N245–382 (domain or fragment)
chain: QKPRWKRQPNDDVTSNVTQCFGPRDLDHNFGSAGVVANGVKAKGYPQFAELVPSTAAMLFDSHIVSKESGNTVVLTFTTRVTVPKDHPHLGKFLEELNAFTREMQQHPLLNPSALEFNPSQTSPATAEPVRDEVSIET
In turn, B4 registered a dissociation constant (Kd) in the data set “AUC [1]” of 3.83 µM.

B5: HCoV‐229E nucleocapsid (N) protein C‐terminal domain truncation N245–350 (domain or fragment)
chain: QKPRWKRQPNDDVTSNVTQCFGPRDLDHNFGSAGVVANGVKAKGYPQFAELVPSTAAMLFDSHIVSKESGNTVVLTFTTRVTVPKDHPHLGKFLEELNAFTREMQQ
Consider B5, for which, in the data set “AUC [1]”, the affinity, expressed as Kd, was 256 µM; the “stoichiometry N” value is 2 and 4.

B6: N245–350: truncated C‐terminal domain of the HCoV‐229E N protein, dimeric C‐terminal structural domain (protein)
chain: B5 chain
modifications: left off: His6, C-terminal, state not stated
On to B6, for which, in data set [4], the “Disordered (random coil) content” value is roughly 15%, the Sheet content is given as roughly 22% and the Turn content is reported as roughly 12%. The “melting temperature (Tm)” value in data set [5] came to 35.5 °C.
